Fold more efficient binding to MOLT-4 cells than secreted E2 data for 1 substance are collected here from patent US7429385.

The target in this assay is MOLT4 receptor (putative E2 receptor on human lymphoma T-cells, MOLT-4 cells) (human). Kind of assay: cytofluorimetric binding assay on MOLT-4 cells.

“intracellularly produced truncated HCV E2 terminating at amino acid 715 (E2715), from CHO cell lysate (from UniProt P26664 384-715)”: the fold more efficient binding to MOLT-4 cells than secreted E2 amounted to 30 fold.
